In article PMC8533642 (Journal of medicinal chemistry, 2021):
Square brackets hold non-standard residues; d marks the D form. Peptide text beside a SMILES is read from it. d2Nal = N[C@H](Cc1ccc2ccccc2c1)C(=O)O

Legend:
[1] = Solubility in solvents compatible with RP-HPLC
[2] = target: mMC4R (Mus musculus, UniProt P56450); conditions: miniAGRP(87–120), β-galactosidase reporter gene assay; cited from earlier work
[3] = target: mMC3R (Mus musculus, UniProt P33033); conditions: miniAGRP(87–120), β-galactosidase reporter gene assay; cited from earlier work
Chain of mMC3R (P33033 whole entry): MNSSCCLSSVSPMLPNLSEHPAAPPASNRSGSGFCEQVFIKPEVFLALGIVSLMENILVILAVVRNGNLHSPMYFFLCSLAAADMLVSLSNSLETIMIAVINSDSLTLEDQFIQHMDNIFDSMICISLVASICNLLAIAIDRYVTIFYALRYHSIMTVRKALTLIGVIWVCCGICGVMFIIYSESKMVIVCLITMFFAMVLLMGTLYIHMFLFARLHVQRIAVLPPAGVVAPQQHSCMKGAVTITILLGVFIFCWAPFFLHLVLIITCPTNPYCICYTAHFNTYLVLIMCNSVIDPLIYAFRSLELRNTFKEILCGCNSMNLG

Chain of mMC4R (P56450 whole entry): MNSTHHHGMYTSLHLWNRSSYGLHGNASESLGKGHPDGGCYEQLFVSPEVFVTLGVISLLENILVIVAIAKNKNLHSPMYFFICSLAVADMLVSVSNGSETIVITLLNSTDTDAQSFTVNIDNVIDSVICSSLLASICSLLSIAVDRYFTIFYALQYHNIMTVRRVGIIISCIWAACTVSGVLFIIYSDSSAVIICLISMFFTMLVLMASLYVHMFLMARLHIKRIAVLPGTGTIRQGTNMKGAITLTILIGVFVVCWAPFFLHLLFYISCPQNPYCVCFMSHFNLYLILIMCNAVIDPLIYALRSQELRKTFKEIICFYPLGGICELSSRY

CC(=O)N[C@H](Cc1ccc2ccccc2c1)C(=O)N[C@H](Cc1ccc2ccccc2c1)C(=O)N[C@H](Cc1ccc2ccccc2c1)C(=O)N[C@H](Cc1ccc2ccccc2c1)C(N)=O [Ac-DNal(2’)-DNal(2’)-DNal(2’)-DNal(2’)-NH2] (Ac-[d2Nal][d2Nal][d2Nal][d2Nal]-NH2)
solubility in solvents compatible with RP-HPLC [1]: insoluble

miniAGRP(87–120): truncated agouti-related protein melanocortin receptor antagonist (CVRLHESCLGQQVPCCDPCATCYCRFFNAFCYCR; UniProt O00253 87-120, looked up, fragment)
mMC4R pA2 [2]: 8.5±0.1
mMC3R pA2 [3]: 8.1±0.1
